What is called stoichiometry N is the number of molecules, sites or subunits per partner or assembly. The term Kd denotes a measure of binding affinity in units of concentration. Broadly, the Km is the substrate concentration at which the rate is half of its maximum.

This note sets out measurements from paper PMC9491548, “The primary familial brain calcification-associated protein MYORG is an α-galactosidase with restricted substrate specificity” (PLoS Biology, 2022).

Data set [1] addresses myogenesis-regulating glycosidase (MYORG) residues 80-714, glycosylated (human). Nature of the data set: SEC-MALS; SEC-MALLS; Superdex S200 10/300 GL in 20 mM HEPES (pH 7.5), 200 mM NaCl; ambient temperature; 100 ul of 3 mg/ml MYORG injected; 0.5 ml/min. A general note: SEC sorts molecules by how far they enter the pores of the column.
The target of data set [2] is T1, MYORG (myogenesis-regulating glycosidase) (Homo sapiens, UniProt Q6NSJ0).
T1 sequence (Q6NSJ0 80-714): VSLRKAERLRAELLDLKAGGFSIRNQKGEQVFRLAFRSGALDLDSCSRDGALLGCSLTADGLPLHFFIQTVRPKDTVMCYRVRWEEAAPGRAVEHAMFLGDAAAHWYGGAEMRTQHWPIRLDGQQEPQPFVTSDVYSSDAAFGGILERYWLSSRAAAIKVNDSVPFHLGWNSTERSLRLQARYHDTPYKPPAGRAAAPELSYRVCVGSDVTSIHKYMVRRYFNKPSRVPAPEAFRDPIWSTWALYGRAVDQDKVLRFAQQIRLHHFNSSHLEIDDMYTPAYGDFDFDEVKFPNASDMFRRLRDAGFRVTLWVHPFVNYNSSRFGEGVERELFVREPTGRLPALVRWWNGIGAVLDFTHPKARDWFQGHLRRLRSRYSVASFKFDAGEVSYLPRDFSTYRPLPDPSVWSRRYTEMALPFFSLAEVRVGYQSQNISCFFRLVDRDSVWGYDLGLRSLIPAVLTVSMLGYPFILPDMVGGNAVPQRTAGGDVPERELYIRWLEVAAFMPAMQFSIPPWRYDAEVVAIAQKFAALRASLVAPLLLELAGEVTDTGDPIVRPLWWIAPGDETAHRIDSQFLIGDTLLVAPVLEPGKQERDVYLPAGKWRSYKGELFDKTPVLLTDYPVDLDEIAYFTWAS

The target in data set [3] is myogenesis-regulating glycosidase (MYORG) residues 80-714, deglycosylated with EndoH (human). Nature of the data set: SEC-MALS; SEC-MALLS; Superdex S200 10/300 GL in 20 mM HEPES (pH 7.5), 200 mM NaCl; ambient temperature; 100 ul of 3 mg/ml MYORG injected; 0.5 ml/min.
The target in data set [4] is T1, MYORG (myogenesis-regulating glycosidase). Nature of the data set: ITC; crystal structure ([…] Å soak); thermal shift (ΔTm […] °C); inhibition of 4MU-Gal hydrolysis. The format is binding. Set-up: residues 80–714 (MYORGGH31). On the technique in general: Isothermal titration calorimetry measures the heat released or taken up as one component is titrated into another.
Substrate in data set [5]: OC[C@H]1O[C@H](O[C@H]2[C@H](O)[C@@H](O)C(O)O[C@@H]2CO)[C@H](O)[C@@H](O)[C@H]1O
The experiment in a line: Michaelis–Menten kinetics with purified enzyme (glucose oxidase/HRP paired-enzyme assay); KM. The settings on record: active site, −[…] and +[…] subsites. The format is biochemical, Homo sapiens.

“myogenesis-regulating glycosidase (MYORG) residues 80-714, glycosylated (domain or fragment)” had a stoichiometry N in data set [1] of 2. With `Cc1cc(=O)oc2cc(O[C@H]3O[C@H](CO)[C@H](O)[C@H](O)[C@H]3O)ccc12` [4MU-Gal], the “fluorogenic hydrolysis by purified enzyme; kcat/KM” value in data set [2] stood at 7.247 ± 0.0637 M⁻¹ s⁻¹. Take “myogenesis-regulating glycosidase (MYORG) residues 80-714, deglycosylated with EndoH (domain or fragment)”: the stoichiometry N in data set [3] came out at 2. In the case of `OC[C@H]1NC[C@H](O)[C@@H](O)[C@H]1O` [DGJ, deoxygalactonojirimycin], in data set [4], the Kd was found to be 1.33 ± 0.45 µM.

B1: MYORG (myogenesis-regulating glycosidase) (Homo sapiens) (protein)
chain: VSLRKAERLRAELLDLKAGGFSIRNQKGEQVFRLAFRSGALDLDSCSRDGALLGCSLTADGLPLHFFIQTVRPKDTVMCYRVRWEEAAPGRAVEHAMFLGDAAAHWYGGAEMRTQHWPIRLDGQQEPQPFVTSDVYSSDAAFGGILERYWLSSRAAAIKVNDSVPFHLGWNSTERSLRLQARYHDTPYKPPAGRAAAPELSYRVCVGSDVTSIHKYMVRRYFNKPSRVPAPEAFRDPIWSTWALYGRAVDQDKVLRFAQQIRLHHFNSSHLEIDDMYTPAYGDFDFDEVKFPNASDMFRRLRDAGFRVTLWVHPFVNYNSSRFGEGVERELFVREPTGRLPALVRWWNGIGAVLDFTHPKARDWFQGHLRRLRSRYSVASFKFDAGEVSYLPRDFSTYRPLPDPSVWSRRYTEMALPFFSLAEVRVGYQSQNISCFFRLVDRDSVWGYDLGLRSLIPAVLTVSMLGYPFILPDMVGGNAVPQRTAGGDVPERELYIRWLEVAAFMPAMQFSIPPWRYDAEVVAIAQKFAALRASLVAPLLLELAGEVTDTGDPIVRPLWWIAPGDETAHRIDSQFLIGDTLLVAPVLEPGKQERDVYLPAGKWRSYKGELFDKTPVLLTDYPVDLDEIAYFTWAS
notes: residues 80–714 (MYORGGH31)
As for B1, the Km in data set [5] came to 980 ± 7 µM.
